Data from US11673916B2, “Neuroprotective peptides and methods of their use” (University of Pittsburgh—Of the Commonwealth System of …, priority 2020, dated 2023).

Key:
[1] = biological target: T1, endogenous Kv2.1 channels (Rattus norvegicus, UniProt P15387); assay: Immunocytochemistry of endogenous Kv2.1 channel clusters in fixed cortical neurons; assay type: cell-based; details: 10 μM, three-hour treatment, mean±SEM (FIG. 10B)
T1 construct: in order to visualize the distribution of endogenous Kv2.1 channels; endogenous in cells; host or cells: primary rat cortical neurons
T1 sequence (P15387 1-857): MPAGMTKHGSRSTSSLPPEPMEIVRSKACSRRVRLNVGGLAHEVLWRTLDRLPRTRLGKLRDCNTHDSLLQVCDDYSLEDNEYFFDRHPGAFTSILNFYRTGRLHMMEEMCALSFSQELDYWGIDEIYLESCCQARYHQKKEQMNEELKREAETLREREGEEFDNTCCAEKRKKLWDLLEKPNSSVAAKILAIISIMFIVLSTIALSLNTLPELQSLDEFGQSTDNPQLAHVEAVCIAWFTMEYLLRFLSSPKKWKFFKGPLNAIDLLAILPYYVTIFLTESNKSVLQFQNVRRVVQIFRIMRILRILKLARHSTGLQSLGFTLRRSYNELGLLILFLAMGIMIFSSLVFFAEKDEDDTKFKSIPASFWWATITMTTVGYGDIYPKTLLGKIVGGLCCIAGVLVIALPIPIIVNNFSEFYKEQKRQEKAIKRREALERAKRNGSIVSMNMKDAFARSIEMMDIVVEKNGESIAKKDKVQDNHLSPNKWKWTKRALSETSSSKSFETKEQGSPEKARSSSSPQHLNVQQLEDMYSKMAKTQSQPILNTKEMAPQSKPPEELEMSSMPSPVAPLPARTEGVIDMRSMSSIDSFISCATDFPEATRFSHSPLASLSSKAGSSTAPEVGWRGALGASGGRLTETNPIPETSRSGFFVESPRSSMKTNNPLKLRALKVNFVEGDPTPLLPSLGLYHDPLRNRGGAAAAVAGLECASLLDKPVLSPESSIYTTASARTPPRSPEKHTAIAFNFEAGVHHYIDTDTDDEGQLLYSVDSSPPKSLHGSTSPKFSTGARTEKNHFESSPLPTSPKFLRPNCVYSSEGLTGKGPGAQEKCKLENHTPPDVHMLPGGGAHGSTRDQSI
Description: The in vitro Kv2.1 immunofluorescence experiment (FIG. 10) was carried out in DIV 21-26 primary rat neuronal cultures, as described above. Each coverslip was treated with either TAT-DP-2 or TAT-Sc-2 in its individual well to reach a final concentration of […] 3 hours, coverslips were transferred to PBS and immediately fixed with 4% paraformaldehyde/4% sucrose for 15 minutes. Coverslips were rinsed with PBS 3 times and then permeabilized with 0.25% triton-X-100 for 15 minutes. Cells were rinsed with PBS 3 times and then blocked with 2% BSA/10% normal goat serum for 1 hour at room temperature. […]
To analyze Kv2.1 distribution in live primary cortical neurons, cells were transfected with both a tdTomato construct and a GFP-tagged Kv2.1 construct (O'Connell, et al., J Neurosci. 26: 9609-9618, 2006) and imaged on a Nikon A1+ confocal microscope (Nikon, Tokyo, Japan). […] For live images of transfected neurons, object count parameters were customized to define a Kv2.1 cluster as an area of high intensity GFP fluorescence (compared to background), measuring 0.05 μm^2 or larger (Schulien et al., J Physiol (Lond). 594: 2647-2659, 2016). Kv2.1 cluster density was calculated by normalizing the number of Kv2.1 clusters counted to the somatic area of each neuron (#Kv2.1 clusters/μm^2). […]

[2] = biological target: T2, Kv2.1-mediated potassium currents (Rattus norvegicus, UniProt P15387); assay: Whole-cell voltage clamp of Kv2.1-mediated potassium current densities with or without TBOA; assay type: cell-based; details: voltage step from -80 mV to 30 mV, mean±SEM (FIG. 4A)
T2 construct: endogenous in cells; host or cells: primary rat cortical neurons
T2 sequence (P15387 1-857): T1 sequence (P15387 1-857)

[3] = 10 μM peptide + TBOA (60 μM), 3-5 hours after treatment

| Sequence | mean Kv2.1 surface cluster density (endogenous channels) [1] | mean Kv2.1-mediated potassium current density [2, 3] [pA/pF] | mean Kv2.1-mediated potassium current density ([2]; 10 μM peptide without TBOA) [pA/pF] |
| --- | --- | --- | --- |
| YGRKKRRQRRRDFSSIST [TAT-Sc-2, TAT-linked scramble control peptide] | 0.056±0.005 #Kv2.1 clusters/μm^2 of neuronal soma | 130.80±9.43 | 71.42±10.27 |
| YGRKKRRQRRRSIDSFTS [TAT-DP-2, TAT-linked declustering peptide 2] | 0.030±0.003 #Kv2.1 clusters/μm^2 of neuronal soma | 65.68±12.07 | 66.86±4.76 |
